Series [1] deals with T1, MBP-MafB WT (Homo sapiens, UniProt Q9Y5Q3 1-323). Kind of series: competition.
Series [2] concerns the target T1, MBP-MafB WT. Kind of series: EMSA. In general terms: Mobility shift assays separate free from complexed probe on a gel.
The target in series [3] is MBP-MafB ΔHis (Homo sapiens, UniProt Q9Y5Q3 1-323, del131-167). Kind of series: EMSA.

From article doi:10.1101/2023.04.10.536149 come the findings set out here.

B1: unlabelled MARE competitor (dsDNA)
DNA 1: TGCTGACTCAGCA
DNA 2: TGCTGAGTCAGCA
As to B1, in series [1], the binding result is reported as “binds”.

B2: IRDye700 MARE EMSA probe (dsDNA)
DNA 1: TGCTGACTCAGCA
DNA 2: TGCTGAGTCAGCA
Regarding B2, the binding result in series [2] and in series [3] was “binds” each time.
